Results on 1 substance are retold here after paper PMC7406314.

The target in the assay is ARPC1A-STREP (human) (UniProt Q92747). The assay can be described thus: co-purification of a co-expressed recombinant complex; Arp2/3-C1A complexes with ARPC5, ARPC5L or hybrids co-expressed in Sf21 cells and purified as previously described (Abella et al., 2016); Coomassie-stained gel, band quantification with Fiji normalised to ARPC2; immunoblot of the purified complexes.
Chain of UniProt Q92747 (Q92747 whole entry): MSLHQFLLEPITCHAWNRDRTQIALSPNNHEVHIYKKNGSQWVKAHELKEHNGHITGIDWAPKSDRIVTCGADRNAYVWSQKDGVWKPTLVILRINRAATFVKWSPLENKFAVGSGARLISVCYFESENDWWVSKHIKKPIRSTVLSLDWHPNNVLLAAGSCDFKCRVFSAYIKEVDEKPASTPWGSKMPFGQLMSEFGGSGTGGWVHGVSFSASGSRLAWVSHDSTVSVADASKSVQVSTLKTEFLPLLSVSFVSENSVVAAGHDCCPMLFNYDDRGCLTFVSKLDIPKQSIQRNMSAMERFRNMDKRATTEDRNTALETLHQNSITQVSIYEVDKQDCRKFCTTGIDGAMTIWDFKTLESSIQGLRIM

Chain of ARPC5L (Q9BPX5 whole entry): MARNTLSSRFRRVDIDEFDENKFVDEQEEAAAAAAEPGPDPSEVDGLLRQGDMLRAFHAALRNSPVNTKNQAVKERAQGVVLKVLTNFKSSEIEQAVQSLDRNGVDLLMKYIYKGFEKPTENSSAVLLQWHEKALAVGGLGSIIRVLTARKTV

Take “ARPC5L (from UniProt Q9BPX5 1-153) (natural protein)”: the gel band ratio to ARPC2 in the purified Arp2/3-C1A complex (subunit occupancy) is 0.52.
